Drawing on the supplement of paper PMC12042874, this text covers amyloid nucleation score for 138 substances.

± gives the uncertainty stated by the source.

The nature of the data set: amyloid nucleation score (Sup35N fusion, yeast selection) (log enrichment); library NNK2; higher = more nucleation; inactive = no reads after selection. A digest of the protocol: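 The nucleation score, computed with DiMSum, is the log enrichment of output over input reads, centred on the mode score of non-aggregating sequences. Sequences with under 100 input reads were dropped. Reads were generated by Illumina sequencing of plasmid inserts from psi-negative yeast with Sup35N fused to peptides of 20 random codons, induced with 100 μM copper sulfate for 24 hours and grown 7 days at 30°C on medium lacking adenine and uracil.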
The substance VVSINVQVDHVCYAFSQVSQ had an amyloid nucleation score of 8.211 ± 0.062. As for FVLCYTTGFLVTFLLEWFFS, the figure is 0.228 ± 1; as for QKTRLSPVYHVGNSGLSPSV, 0.29 ± 0.77. As for CSNSFLI, the figure is -0.868 ± 1.1; as for YRLFSRWAVVRFMGVGSLSF, -0.691 ± 0.56; as for TYGVLVNIGGWIDTFGWKLK, 6.662 ± 0.049. As for CDILYLNMFAIFDFFDPVKL, the entry is “inactive”.

Regarding TGYLVWFG, the amyloid nucleation score was found to be 0.951 ± 0.3. In the case of ELFRDNTGSSVVGNSRSSDA, the amyloid nucleation score was determined as 0.438 ± 0.17. In the case of TLQKELSHVQETRYTW, the amyloid nucleation score is -0.288 ± 1.

WAYPRNVQ returned an amyloid nucleation score of 0.327 ± 0.38. In the case of ATDADGRLISY it was 1.31 ± 0.25; in that of NRSHCIVVQLLRCFGYVPYG, “inactive”. Substance NGVSMESRFQFSDWWNPTYY registered an amyloid nucleation score of -0.847 ± 0.64. As for LFPSLMAVNVQRSDTGPSHG, the figure is 1.2 ± 0.45; as for TLAFVNNYDLRLELDRIEVP, “inactive”; as for AKVCFFKHESPMGQVGAY, -1.2 ± 0.54.

Substance YGMVIRCPARVCVQTLFNNA yielded an amyloid nucleation score of 4.86 ± 0.094. SQVQSFIFSPGLNNSKAEFT showed an amyloid nucleation score of -0.078 ± 0.8. As for PVKPDSVGVRSIMGIVFGYR, the figure is 2.94 ± 0.051. In the case of ISLHDRWIADPFVTACGKRY it was 0.386 ± 0.19; in that of NREANLDDWLGRGQFSMIWW, -0.287 ± 0.79. In the case of RQDPDSLTLHRLSSGGIR it was 0.366 ± 0.64; in that of YHTSQLYWLLRCQSSFNSWG, 2.48 ± 0.079. Substance RNLCGFGCVTFRSVLL had an amyloid nucleation score of 0.279 ± 0.65. As for YGRIR, the figure is -0.131 ± 0.63. In the case of MSFWMSTTINRN it was 1.67 ± 0.1. In the case of RLLNTAVLVANESNQNARDR it was -0.245 ± 0.29. TFCSPR registered an amyloid nucleation score of 0.49 ± 0.5. As for GICRKNDRTSDQRYFVKSL, the figure is -0.575 ± 0.53. NVLCKRVMMV showed an amyloid nucleation score of 0.384 ± 0.66. For MGLWLDYDTHCYQNVVFKRT, the amyloid nucleation score came out at 2.41 ± 0.091. As for LFLGYMSLCVVYVLAFGRFE, the figure is 3.79 ± 0.043; as for RMPVLSCDCRFFYVLSRVNE, -0.566 ± 1; as for ETPIIRDQYKLGYNLRTSVL, “inactive”.

In turn, SFSVLLADGQYRCYLLDSVL gave an amyloid nucleation score of -0.516 ± 0.48. In the case of PLIYLSSFYIDCHLWSSFGV it was 6.806 ± 0.035.

Substance CDHQRLMTYLVPAGYMPDTM came in with an amyloid nucleation score of -0.201 ± 0.62. In turn, LCILTRTYSAQA gave an amyloid nucleation score of -0.238 ± 0.49.

As for STWWWYLCIQARLMCMRFLA, the amyloid nucleation score was -0.357 ± 0.23. Take LVTLRKMDPSPRRVIFNVCN: the amyloid nucleation score came to 0.935 ± 0.39. VLGWCCLVLSILLKCEKVGL yielded an amyloid nucleation score of -0.095 ± 1.1. As for DGVRGLYKRLRMCTTCLCTL, the figure is 6.48 ± 0.079. As for WCTLFFQCRRPG, the figure is 5.554 ± 0.049; as for NRNHMCRSCYMGWFRGRAKA, -1.04 ± 0.42; as for YYGLVSGGLQYVCMFGSFIY, “inactive”. As for NICELPITHKVGSWV, the figure is 0.518 ± 0.38. In turn, THIITWSVNFTKGWQCFESQ yielded an amyloid nucleation score of 1.36 ± 0.38. In the case of DPLPMSYRVYSARSW it was -0.81 ± 1. RVRWYSCLVFMISTGFAFL: the amyloid nucleation score is -0.702 ± 0.76.

With SILGMG, the amyloid nucleation score is -0.555 ± 0.28. YMFNSWYGLSSLWGKSKKMS: the amyloid nucleation score is -0.538 ± 0.26.

With RSNNTIFGKLFSGAILLCWV, the amyloid nucleation score is -1.2 ± 1. Substance QIDYRLIVGRSG returned an amyloid nucleation score of 0.32 ± 0.74. In the case of SACDGPGTQSRIVGWGHSCV it was 1.33 ± 0.27; in that of GITSFDTIYCGRVVYQRWLL, 0.578 ± 0.81. In the case of NRLLSVSEFAMDTRMRQEEA it was 1.01 ± 0.36; in that of HSGLSGTILGWLIFKVEGEE, 0.007 ± 0.42. PCTVHASNRTLGHRVKSCSV had an amyloid nucleation score of -0.515 ± 1.1.

Regarding YCMSYCRSTCYHQEFHGPAC, the amyloid nucleation score stood at 4.34 ± 0.072. In the case of SRRVFVKWGNWSCFVVVEDN it was 0.072 ± 0.16; in that of SQRNTLEFVLAGYKTTLVIS, -0.549 ± 0.27; in that of RAWKSPYCLNTRMSTEGHEY, 0.348 ± 0.48. Consider RYCLTVSKGLRSG, for which the amyloid nucleation score was -0.722 ± 0.49. In the case of RKGSTGRDISSNSYIVY it was “inactive”; in that of DRYSTCSNRKSTRYLFMTFA, 0.151 ± 0.36; in that of GDVGAVRVSCVCWLVLVKRG, 0.066 ± 0.76. In the case of YQSPCVTVVSGKRALPRGGR it was -0.001 ± 0.28; in that of TRMVCSFRCQESVPEP, 0.775 ± 0.8; in that of TCVLKVFVL, -1.43 ± 1.1. In the case of NTNRVVWVVLAMKI it was 0.086 ± 0.77. TLLSFRTVDNKIYKVLWVKT gave an amyloid nucleation score of 0.418 ± 0.48. Substance LSNLEAEAWMRAYCIRVKIT registered an amyloid nucleation score of 2.16 ± 0.1. In the case of FWKNYQIMMRMCDKHVIEDV it was 2.95 ± 0.11; in that of FLQNWKLYRCCLRVASVGGR, 4.67 ± 0.11; in that of MLDLIRLNDVICSQKFH, 0.48 ± 0.64. In the case of YAMGGGKGEDDLSCWYDYAC it was 0.219 ± 0.47; in that of EAYVHGMR, 1.07 ± 0.25. In the case of RRIIQCSDEFVLYQCNMLRC it was 0.759 ± 0.41; in that of VLVDTSDRWLMARWLGVPKP, 4.79 ± 0.084; in that of VCYAGLLAKRLRLVVVSGNV, 0.531 ± 0.26.

On to NVWILNNYGQCIKS, for which the amyloid nucleation score is 5.254 ± 0.023. In the case of VTKDCNMRMKCTSSIIFLKN it was -0.459 ± 1.1; in that of STVVLSHRCLLSCE, -0.656 ± 1.1; in that of PSSFNSRFFCLVTNGWQYMS, “inactive”. As for TLCGFNKGAAIGWCTWNSEK, the figure is 4.05 ± 0.13; as for MDGNDYAVVR, 0.861 ± 0.23; as for SVAWVLLWV, 0.636 ± 0.81. In the case of NREFCFFVSDVKIPYTPCVP it was -0.609 ± 0.32. Take PSTYWRMILKFRVCEIVHGT: the amyloid nucleation score was determined as 0.231 ± 0.21. In the case of VRTWISDSCSVYWSSRLA it was 5.06 ± 0.084.

In turn, NQTPLMLACSADFHSISSWT had an amyloid nucleation score of 0.365 ± 0.4. In turn, MEPNYGVRGVMYNFVMPRWM registered an amyloid nucleation score of 7.251 ± 0.047.

In turn, YGRPIIVMYKLLRQNSSSRL had an amyloid nucleation score of -0.496 ± 0.48.

The substance VVSRVECALAWVRNDIEALT showed an amyloid nucleation score of 0.343 ± 0.8. Substance WVHVNSCELDSPGKAWGDTG came in with an amyloid nucleation score of 1.11 ± 0.32. In the case of MLYVVCFCILVFLFHTNRMR it was -0.674 ± 0.32. As for LIFCGECTILNTGGGNRAWV, the figure is 8.361 ± 0.03; as for RLSLQTVRLPLLYIWDEDSW, 3.43 ± 0.15. For the substance QFAYTRSSPVKIYLYNNYGA, the amyloid nucleation score came to 8.109 ± 0.037. In the case of GTSIFHRKDGASTDMACQPF it was 0.14 ± 0.63; in that of KVESVKHRQNKGFYCWLVRN, -1.25 ± 0.75; in that of RQGFSVSSNRLGVFQSQEPG, -1.05 ± 0.78.

MVAYFPMSPG displayed an amyloid nucleation score of -0.076 ± 0.24. In the case of GGISNVCLSYVRFQEFVFNV it was 5.69 ± 0.093; in that of ISACFKMGNRGYVICAMSRV, -0.306 ± 0.45; in that of LYTRMPMYGHSEKFLVCESS, -0.486 ± 0.27. As for FCFSLCWDIFNVLSVFGYNF, the amyloid nucleation score was -0.793 ± 1.

GDYYFV registered an amyloid nucleation score of -1.19 ± 1. As for FCWLCFIRSEV, the figure is 0.554 ± 0.81; as for TLFSLREGLFNGIWTVSLSW, -1.09 ± 1.1; as for WTHDVWSGSYEWARDGLDVK, -0.163 ± 0.79.

For the substance NGFCYFDGLSLSYSKLTGMM, the amyloid nucleation score entry was “inactive”. In the case of KWVMRNIWDTYSKVGLQSST it was -0.206 ± 0.39.

Turning to SNSNTSEWKTG, the amyloid nucleation score was -0.156 ± 0.79.

With TLCMRLN, the amyloid nucleation score worked out at 1.64 ± 0.086. As for GFLFRFETRKTHRSCLSWIG, the figure is 1.71 ± 0.13; as for VISNHPETTDTNRVLLYVLG, 0.411 ± 0.53; as for CEGNGVFYGLPYSGSDIPNR, -0.719 ± 0.61.

Substance SFVSTVFMGRVFMQHAISTR showed an amyloid nucleation score of -1.08 ± 0.55. As for DRRGQQVLGPACRGCWFWPD, the figure is 0.305 ± 1; as for GCYRLNSLYATIQLRLLSWW, -0.46 ± 1.1; as for QEMYALACHVLTCCNLRNKR, 9.866 ± 0.034. As for GGSKLVLLFE, the figure is -0.81 ± 0.76; as for YLEMMYVAFNFFNGIYCLFY, “inactive”.

HGLLTKLWRPFMHGSV gave an amyloid nucleation score of 0.203 ± 0.31.

Take NNIGS: the amyloid nucleation score entry is “inactive”. As for VLVEGVQCYSENRTNT, the figure is 1.49 ± 0.41.

Turning to RICVRCPSYYTMWLWCLRFL, the amyloid nucleation score result was “inactive”. In the case of LNCTYN it was -0.311 ± 0.79.

For the substance INRPYNIVGRRSSPSHIVTF, the amyloid nucleation score result was “inactive”. As for MMYDRIIQFTLYTLI, the figure is 3.09 ± 0.057; as for DQKTMTTVL, 0.368 ± 0.45. In turn, AMYIIAFSPTK showed an amyloid nucleation score of 1.36 ± 0.67. HVVLNFCDTVWLMSKAP displayed an amyloid nucleation score of 9.03 ± 0.078. In the case of SWLFRYYVERVNDVRG it was 0.191 ± 0.65; in that of VVPIGETR, 1.49 ± 0.47.

Turning to YCFVDALSCDLPNHEHMDVF, the amyloid nucleation score result was “inactive”.
